Source: patent US20180155413A1 (AstraZeneca / MedImmune, published 2018)

Experiments:
Assay in all cases: cell-based or functional assay
[1] = target: HA of A/Fort Monmouth/1/47 (H1N1) (influenza A virus)
[2] = target: HA of A/Shenzhen/227/95 (H1N1) (influenza A virus)
[3] = target: HA of ca A/South Dakota/6/2007 (H1N1) (influenza A virus)
[4] = target: HA of A/California/07/2009 (H1N1) (influenza A virus)
[5] = target: HA of A/New Hampshire/04/2010 (H1N1) (influenza A virus)
[6] = target: HA of ca A/chicken/Hong Kong/G9/97 (H9N2) (influenza A virus)
[7] = target: HA of ca A/Sydney/5/97 (H3N2) (influenza A virus)
[8] = target: HA of A/New York/39/2012 (H3N2) (influenza A virus)
[9] = target: HA of A/New Caledonia/71/2014 (H3N2) (influenza A virus)
[10] = target: T1, HA of B/Lee/40 (influenza B virus, UniProt P03460 16-584)
T1 sequence (P03460 16-584 limits assumed): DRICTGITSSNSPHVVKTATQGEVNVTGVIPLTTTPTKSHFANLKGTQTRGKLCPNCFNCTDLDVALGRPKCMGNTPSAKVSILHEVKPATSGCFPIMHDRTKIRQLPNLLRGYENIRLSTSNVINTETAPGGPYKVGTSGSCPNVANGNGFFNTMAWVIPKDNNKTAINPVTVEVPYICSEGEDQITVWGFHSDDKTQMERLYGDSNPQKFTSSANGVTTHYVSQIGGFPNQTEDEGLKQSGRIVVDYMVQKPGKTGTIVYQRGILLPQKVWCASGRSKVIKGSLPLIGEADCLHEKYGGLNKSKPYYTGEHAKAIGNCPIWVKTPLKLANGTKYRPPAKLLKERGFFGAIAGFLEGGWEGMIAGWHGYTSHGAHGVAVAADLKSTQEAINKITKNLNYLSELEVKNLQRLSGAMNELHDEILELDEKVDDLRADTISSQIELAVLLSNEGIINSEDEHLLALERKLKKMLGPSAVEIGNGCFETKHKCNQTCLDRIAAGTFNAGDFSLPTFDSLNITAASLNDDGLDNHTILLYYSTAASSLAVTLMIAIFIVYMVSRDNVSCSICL

[11] = target: HA of B/Hong Kong/5/72 (influenza B virus)
[12] = target: HA of B/Hong Kong/330/2001 (victoria) (influenza B virus)
[13] = target: HA of B/Ohio/1/2005 (victoria) (influenza B virus)
[14] = target: HA of ca B/Brisbane/60/2008 (victoria) (influenza B virus)
[15] = target: HA of ca B/Georgia/02/98 (yamagata) (influenza B virus)
[16] = target: HA of B/Yamanashi/166/98 (yamagata) (influenza B virus)
[17] = target: HA of B/Sichuan/379/99 (yamagata) (influenza B virus)
[18] = target: HA of ca B/Victoria/504/2000 (yamagata) (influenza B virus)
[19] = target: HA of B/Florida/4/2006 (yamagata) (influenza B virus)
[20] = target: HA of B/Wisconsin/1/2010 (yamagata) (influenza B virus)
[21] = target: HA of B/Arizona/8/2013 (yamagata) (influenza B virus)
[22] = target: T1, HA of B/Lee/40; remark: listed apart in the source
[23] = target: HA of ca B/Ann Arbor/1/66 (influenza B virus)
[24] = target: HA of B/Hong Kong/5/72 (influenza B virus); remark: listed apart in the source
[25] = target: HA of ca B/Beijing/243/97 (victoria) (influenza B virus)
[26] = target: HA of B/Hong Kong/330/2001 (victoria) (influenza B virus); remark: listed apart in the source
[27] = target: HA of B/Malaysia/2506/2004 (victoria) (influenza B virus)
[28] = target: HA of B/Ohio/1/2005 (victoria) (influenza B virus); remark: listed apart in the source
[29] = target: HA of ca B/Brisbane/60/2008 (victoria) (influenza B virus); remark: listed apart in the source
[30] = target: HA of B/Yamagata/16/88 (yamagata) (influenza B virus)
[31] = target: HA of ca B/Ann Arbor/2/94 (yamagata) (influenza B virus)
[32] = target: HA of ca B/Georgia/02/98 (yamagata) (influenza B virus); remark: listed apart in the source
[33] = target: HA of B/Yamanashi/166/98 (yamagata) (influenza B virus); remark: listed apart in the source
[34] = target: HA of ca B/Johannesburg/5/99 (yamagata) (influenza B virus)
[35] = target: HA of B/Sichuan/379/99 (yamagata) (influenza B virus); remark: listed apart in the source
[36] = target: HA of ca B/Victoria/504/2000 (yamagata) (influenza B virus); remark: listed apart in the source
[37] = target: HA of B/Shanghai/361/02 (yamagata) (influenza B virus)
[38] = target: HA of B/Florida/4/2006 (yamagata) (influenza B virus); remark: listed apart in the source
[39] = target: HA of A/California/07/2009 (H1N1) (influenza A virus); remark: listed apart in the source
[40] = target: HA of A/Hong Kong/8/68 (H3N2) (influenza A virus)
[41] = target: HA protein derived from A/South Dakota/6/2007 H1N1, on stably transfected MDCK cells (influenza A virus)
[42] = target: HA protein derived from A/Hong Kong/8/68 H3N2, on stably transfected MDCK cells (influenza A virus)

B1: GL20/39 BiS4 100/44 (bispecific antibody)
light: DIQMTQSPSSLSASVGDRVTITCRTSQSLSSYTHWYQQKPGKAPKLLIYAASSRGSGVPSRFSGSGSGTDFTLTISSLQPEDFATYYCQQSRTFGQGTKVEIKRTVAAPSVFIFPPSDEQLKSGTASVVCLLNNFYPREAKVQWKVDNALQSGNSQESVTEQDSKDSTYSLSSTLTLSKADYEKHKVYACEVTHQGLSSPVTKSFNRGEC
heavy: not shown
In the case of B1, the “Neutralization (IC50)” value [1] is reported as 5.2 nM, the “Neutralization (IC50)” value [2] is reported as 7.9 nM and the “Neutralization (IC50)” value [3] is reported as 6.8 nM. The “Neutralization (IC50)” value [4] was 10.9 nM, the “Neutralization (IC50)” value [5] was 0.4 nM and the “Neutralization (IC50)” value [6] was 1.6 nM. The “Neutralization (IC50)” value [7] was 22.6 nM, the “Neutralization (IC50)” value [8] was 0.5 nM and the “Neutralization (IC50)” value [9] was 0.8 nM. For the same binder, the “Neutralization (IC50)” value [10] was 1 nM, the “Neutralization (IC50)” value [11] was 5.7 nM and the “Neutralization (IC50)” value [12] was 66.9 nM. For the same binder, the “Neutralization (IC50)” value [13] was 18.7 nM, the “Neutralization (IC50)” value [14] was 51.8 nM and the “Neutralization (IC50)” value [15] was 1 nM. For the same binder, the “Neutralization (IC50)” value [16] was 0.3 nM, the “Neutralization (IC50)” value [17] was 12.1 nM and the “Neutralization (IC50)” value [18] was 1.3 nM. For the same binder, the “Neutralization (IC50)” value [19] was 1.4 nM, the “Neutralization (IC50)” value [20] was 4.4 nM and the “Neutralization (IC50)” value [21] was 2.2 nM. For the same binder, the “Hemagglutination Inhibition Titer” value [22] was 61 nM, the “Hemagglutination Inhibition Titer” value [23] was 244 nM and the “Hemagglutination Inhibition Titer” value [24] was 244 nM. The “Hemagglutination Inhibition Titer” value [25] was 91 nM, the “Hemagglutination Inhibition Titer” value [26] was 244 nM and the “Hemagglutination Inhibition Titer” value [27] was 244 nM. For the same binder, the “Hemagglutination Inhibition Titer” value [28] was 244 nM, the “Hemagglutination Inhibition Titer” value [29] was 244 nM and the “Hemagglutination Inhibition Titer” value [30] was 122 nM. The “Hemagglutination Inhibition Titer” value [31] was 61 nM, the “Hemagglutination Inhibition Titer” value [32] was 122 nM and the “Hemagglutination Inhibition Titer” value [33] was 122 nM. For the same binder, the “Hemagglutination Inhibition Titer” value [34] was 122 nM, the “Hemagglutination Inhibition Titer” value [35] was 122 nM and the “Hemagglutination Inhibition Titer” value [36] was 61 nM. For the same binder, the “Hemagglutination Inhibition Titer” value [37] was 91 nM and the “Hemagglutination Inhibition Titer” value [38] was 61 nM.

B2: GL20 IgG (antibody, V domains shown)
VH: QVQLQQSGPGLVKPSQTLSLTCAISGDSVSSYNAVWNWIRQSPSRGLEWLGRTYYRSGWYNDYAESVKSRITINPDTSKNQFSLQLNSVTPEDTAVYYCARSGHITVFGVNVDAFDMWGQGTMVTVSS
VL: DIQMTQSPSSLSASVGDRVTITCRTSQSLSSYTHWYQQKPGKAPKLLIYAASSRGSGVPSRFSGSGSGTDFTLTISSLQPEDFATYYCQQSRTFGQGTKVEIK
In the case of B2, the “ADCC: NK cell killing of infected A549 cells (LDH release), IC50” value [39] is reported as 0.024 nM, the “ADCC: NK cell killing of infected A549 cells (LDH release), IC50” value [40] is reported as 0.018 nM and the “Neutralization (IC50)” value [1] is reported as 6.1 nM. For the same binder, the “Neutralization (IC50)” value [2] was 9.3 nM, the “Neutralization (IC50)” value [3] was 10.8 nM and the “Neutralization (IC50)” value [4] was 10.2 nM. The “Neutralization (IC50)” value [5] was 0.4 nM, the “Neutralization (IC50)” value [7] was 32.1 nM and the “Neutralization (IC50)” value [9] was 1 nM. The “EC50 (read off the curve), ADCP % double positive” value [41] was roughly 0.04 nM and the “EC50 (read off the curve), ADCP % double positive” value [42] was roughly 0.04 nM.
